One data set has as its target T1, HPV58 L1 pentamer (human papillomavirus type 58, UniProt P26535).
T1 construct: also called HPV58p; HPV58 pentamer
The experiment in a line: crystal structure. Conditions: both partners purified.

The target of data set [1] is HPV18 TQG L1 VLP (triple mutant T270Q, Q273E, G281D) (human papillomavirus type 18).
The target in another data set is T2, HPV59 L1 pentamer (human papillomavirus type 59).
T2 chain: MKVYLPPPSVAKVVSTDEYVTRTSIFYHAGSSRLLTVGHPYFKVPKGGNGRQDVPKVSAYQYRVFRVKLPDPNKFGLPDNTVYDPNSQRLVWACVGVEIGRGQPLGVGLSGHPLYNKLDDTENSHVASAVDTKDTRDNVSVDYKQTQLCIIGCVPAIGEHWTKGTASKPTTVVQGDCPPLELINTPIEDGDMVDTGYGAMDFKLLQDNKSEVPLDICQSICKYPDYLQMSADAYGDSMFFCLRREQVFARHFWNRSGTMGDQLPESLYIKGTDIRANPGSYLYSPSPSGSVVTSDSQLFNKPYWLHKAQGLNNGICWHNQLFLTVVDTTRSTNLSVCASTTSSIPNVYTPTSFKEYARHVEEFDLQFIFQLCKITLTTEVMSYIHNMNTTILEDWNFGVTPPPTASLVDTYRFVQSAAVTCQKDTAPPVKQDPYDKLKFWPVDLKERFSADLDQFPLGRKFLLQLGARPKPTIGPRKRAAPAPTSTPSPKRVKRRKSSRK
Description: ELISA.

The next data set addresses T3, HPV59 L1 VLP (human papillomavirus type 59).
T3 chain: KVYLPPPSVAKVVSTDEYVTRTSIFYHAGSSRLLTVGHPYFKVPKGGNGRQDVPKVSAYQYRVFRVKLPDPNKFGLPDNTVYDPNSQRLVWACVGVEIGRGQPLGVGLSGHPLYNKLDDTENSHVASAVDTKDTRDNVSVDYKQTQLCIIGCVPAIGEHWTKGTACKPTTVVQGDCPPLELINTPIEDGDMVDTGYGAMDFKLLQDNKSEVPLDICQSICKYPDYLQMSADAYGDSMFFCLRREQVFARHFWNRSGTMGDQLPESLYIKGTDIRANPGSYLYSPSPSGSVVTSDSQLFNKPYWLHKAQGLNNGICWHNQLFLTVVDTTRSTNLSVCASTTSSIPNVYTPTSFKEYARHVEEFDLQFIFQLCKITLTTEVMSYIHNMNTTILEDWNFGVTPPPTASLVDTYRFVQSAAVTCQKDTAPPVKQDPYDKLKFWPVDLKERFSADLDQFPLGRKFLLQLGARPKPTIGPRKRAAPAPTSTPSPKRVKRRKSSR
Description: ELISA.

The target of data set [2] is HPV59 L1 pentamer Q270A (human papillomavirus type 59). The experiment in a line: ELISA; indirect ELISA; wells coated with wild-type or mutant VLPs or pentamers (300 ng/well, overnight at 4°C); 2-fold serial dilutions of the antibody, 1 h at 37°C; detected with HRP goat anti-mouse IgG.
Data set [3] deals with HPV59 L1 pentamer M267A (human papillomavirus type 59). The description is as above.
The data set “crystal structure” deals with the molecule itself. The experiment in a line: crystal structure.

B1: A12A3 Fab (Fab, V domains shown)
VH: EVQLQQSGAELVRPGALVKLSCKASGFNIKDYYMHWVKQRPEQGLEWIGWIDPENGKTIYDPRFRGKASITADTSSNTAYLQLSSLTSEDAAVYYCATSNYRYDRSFDYWGQGTTLTVSA
VL: DIQMTQSPSSLFASLGGKVTITCKASQDINKYIAWFQHKPGKGPRLLIHYTFTLQPGIPSRFSGSGSGRDYSFSISNLEPEDIATYYCLQYHNLYTFGGGTKLEIK
notes: also called Fab fragment of A12A3; source: papain digestion of MAb A12A3, purified with DEAE-5PW exchange
Take B1: the “stoichiometry N” value with HPV58 L1 pentamer came to 1 Fab per pentamer.

B2: MAb 28F10 (antibody, V domains shown)
VH: DVKLVESGGGLVKPGGSLKLSCAASGFPFSDYTMSWIRQTPEKRLEWVASISSGGTYTYYPDTVKGRFTISRDNAKNTLYLQMSSLKSEDTAMFYCTRASPYYDYDEGYMDYWGQGTSVTVSS
VL: DVVMTQTPLSLPVSLGDQASISCRSSQSLVHSNGNTYLHWYLQKSGQSPKLLIYKVSNRFSGVPDRFSGSGSGTDFTLKISRVEAEDLGVYFCSQSTHVPFTFGAGTKLELK
Regarding B2, in data set [1], the IC50 of neutralisation of HPV18 TQG PsVs came out at 9.7 ng/mL. Besides, the EC50 is 46.4 ng/mL in the data set with HPV59 L1 pentamer and 5 ng/mL with HPV59 L1 VLP. Also, the fold increase of the EC50 against the WT HPV59 pentamer came out at 20 fold in data set [2] and 10 fold in data set [3].

B3: HPV58 L1 pentamer (natural protein)
chain: EATVYLPPVPVSKVVSTDEYVSRTSIYYYAGSSRLLAVGNPYFSIKSPNNNKKVLVPKVSGLQYRVFRVRLPDPNKFGFPDTSFYNPDTQRLVWACVGLEIGRGQPLGVGVSGHPYLNKFDDTETSNRYPAQPGSDNRECLSMDYKQTQLCLIGCKPPTGEHWGKGVACNNNAAATDCPPLELFNSIIEDGDMVDTGFGCMDFGTLQANKSDVPIDICNSTCKYPDYLKMASEPYGDSLFFFLRREQMFVRHFFNRAGKLGEAVPDDLYIKGSGNTAVIQSSAFFPTPSGSIVTSESQLFNKPYWLQRAQGHNNGICWGNQLFVTVVDTTRSTNMTLCTEVTKEGTYKNDNFKEYVRHVEEYDLQFVFQLCKITLTAEIMTYIHTMDSNILEDWQFGLTPPPSASLQDTYRFVTSQAITCQKTAPPKEKEDPLNKYTFWEVNLKEKFSADLDQFPLGRKFLLQSGLKAKPRLKRSAPTTRAPSTKRKKVKK
notes: also called HPV58p; HPV58 pentamer
As to B3, the “stoichiometry N” value in the data set “crystal structure” amounted to 5.

Source of the values: publication PMC5615192 (mBio, 2017).
